Data: PMC12122801 (Nature Communications, 2025)

Molecular target: Mycobacterium tuberculosis MmpL5 (Rv0676c) with a C-terminal 1×FLAG tag (Mycobacterium tuberculosis, UniProt P9WJV1)
Test: cryo-EM structure

Chain of Mycobacterium tuberculosis MmpL5 (Rv0676c) with a C-terminal 1×FLAG tag (P9WJV1 whole entry): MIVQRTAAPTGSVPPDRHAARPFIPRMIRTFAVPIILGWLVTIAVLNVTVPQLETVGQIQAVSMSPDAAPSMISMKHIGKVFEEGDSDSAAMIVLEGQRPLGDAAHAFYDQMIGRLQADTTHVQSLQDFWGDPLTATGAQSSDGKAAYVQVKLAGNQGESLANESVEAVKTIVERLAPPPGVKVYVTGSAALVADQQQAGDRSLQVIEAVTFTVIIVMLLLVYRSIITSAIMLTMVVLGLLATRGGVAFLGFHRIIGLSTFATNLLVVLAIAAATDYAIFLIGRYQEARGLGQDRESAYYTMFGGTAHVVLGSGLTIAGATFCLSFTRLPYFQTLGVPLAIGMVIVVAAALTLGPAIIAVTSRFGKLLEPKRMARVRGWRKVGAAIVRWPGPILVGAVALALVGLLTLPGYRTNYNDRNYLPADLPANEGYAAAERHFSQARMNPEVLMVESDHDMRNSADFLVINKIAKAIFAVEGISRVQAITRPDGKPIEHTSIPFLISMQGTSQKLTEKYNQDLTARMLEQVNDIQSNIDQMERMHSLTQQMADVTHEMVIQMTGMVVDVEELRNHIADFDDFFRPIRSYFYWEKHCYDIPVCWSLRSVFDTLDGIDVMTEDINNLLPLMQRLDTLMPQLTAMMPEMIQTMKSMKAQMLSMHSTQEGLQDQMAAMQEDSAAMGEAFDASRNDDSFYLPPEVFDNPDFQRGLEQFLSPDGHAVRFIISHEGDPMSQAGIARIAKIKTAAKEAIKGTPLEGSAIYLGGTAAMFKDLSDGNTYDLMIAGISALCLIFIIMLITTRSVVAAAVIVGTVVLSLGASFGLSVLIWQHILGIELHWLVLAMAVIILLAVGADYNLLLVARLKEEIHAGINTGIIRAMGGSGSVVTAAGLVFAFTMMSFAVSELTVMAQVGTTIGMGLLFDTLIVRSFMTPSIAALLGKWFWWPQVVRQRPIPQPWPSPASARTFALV

B1: Mycobacterium smegmatis acyl carrier protein AcpM (MSMEG_4326) (natural protein)
chain: MAATQEEIIAGLAEIIEEVTGIEPSEVTPEKSFVDDLDIDSLSMVEIAVQTEDKYGVKIPDEDLAGLRTVGDVVAYIQKLEEENPEAAAALREKFAADQ
modifications: 4'-phosphopantetheine (Ppant) covalently attached to Ser41 via a phosphodiester (holo-form)
  binding result: binds
